Earlier results, collected in publication PMC4065351.

System: Cys2 (position 2, ----ECG----)
Conditions: free reduced glutathione

Substance: Glutathione (GSH, gamma-L-glutamyl-L-cysteinylglycine) (not applicable (ubiquitous low-molecular-weight thiol))
- pKa: 8.93
